± gives the standard deviation.

A short description of the series: protein stability index of a GFP-peptide fusion (GPS, HEK-293T) (PSI 1-6); higher = more stable.
Setting [1] is: treatment: DMSO, c terminus: a fixed tail appended.
Where [2] appears, read: treatment: MLN4924 1 uM, 8 h, c terminus: a fixed tail appended.
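Further: 24-mer peptide tiles fused after GFP, lentivirally expressed, FACS-sorted into six equal bins by GFP/DsRed ratio, decoded by Illumina sequencing, PSI is the read-weighted mean bin number.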

QILPVLDFCKVFLISGVTLDNCVE [KLHL13] came in with a protein stability index under setting [1] of 3.21 ± 0.41 and a protein stability index under setting [2] of 2.49 ± 0.064.
The like results for RLPWAGQLTKELPLSPAFFGEDGI [PBXIP1] were, in that order, 3.43 ± 0.44 and 3.49 ± 0.28.
The like results for EFRDDRDLVMALSAGGHGGLLNDT [KCNA4] were, in that order, 4.06 ± 0.35 and 3.91 ± 0.23.
For GDRAGDASKDILLGPWDMVLAQG [SCARA5], the protein stability index by setting is: (treatment: DMSO, c terminus: native) 2.76 ± 0.64; (treatment: MLN4924 1 uM, 8 h, c terminus: native) 2.69 ± 0.54.
With VLVHVQKWDGKSTTIKRKREDDKL [FABP4], the protein stability index under setting [1] was 2.85 ± 0.46 and the protein stability index under setting [2] is 2.85 ± 0.4.
The like results for GFIKKFVLCPECENPETDLHVNPK [EIF5] were, in that order, 3.09 ± 0.38 and 3.29 ± 0.05.
With HLQEYAGNFQGIRFHYDRNPGTDA [FATE1], the protein stability index by setting is: under setting [1], 3.37 ± 0.39; under setting [2], 3.46 ± 0.3.
EEPSKYGVVVCEADTGRIHRFVEK [GMPPB]: the protein stability index is 3.94 ± 0.32 under setting [1] and 3.99 ± 0.18 under setting [2].
For VPVQPLLPESLARSLLPSTEYQKQ [FBF1], the protein stability index under setting [1] came out at 4.18 ± 0.18 and the protein stability index under setting [2] turned out to be 4.58 ± 0.28.
The like results for LGRSIVSSPQGKSGPEAARAGGWV [PKD2L1] were, in that order, 3.45 ± 0.2 and 3.83 ± 0.36.
The like results for SGGGSTSAAGIEARSRALRRRWCP [SPACA3] were, in that order, 3.95 ± 0.12 and 4 ± 0.13.
On the same counts, the results for RSSFANQGEICLCTSRIFVQKSIY [ALDH8A1] are 2.03 ± 0.41 and 2.13 ± 0.24.
YKYGAIRDIDLKNRRGGPPFAFVE [SRSF1]: the protein stability index was found to be 2.38 ± 0.31 under setting [1] and 2.62 ± 0.36 under setting [2].
The like results for MLGYKRHLALHAASSGDLTCGVCA [PLAGL1] were, in that order, 2.53 ± 0.23 and 2.73 ± 0.4.
The like results for GQTTGHPYYLRSFLVVLKTVLENE [FAN1] were, in that order, 2.46 ± 0.5 and 2.21 ± 0.04.
For VGEVPYWVLEPVLEGWRPDQLYRR [ELOA2], the protein stability index reads like this: under setting [1], 1.97 ± 0.33; under setting [2], 2.32 ± 0.33.
On the same counts, the results for MAESWLRLSGAGPAEEAGPEGGLE [FOXJ1] are 4.67 ± 0.17 and 5.01 ± 0.22.
Regarding TGPQLPESLEDVAMYISQEEWGHQ [ZNF263], the protein stability index reads like this: under setting [1], 4.67 ± 0.1; under setting [2], 4.52 ± 0.29.
The like results for LRPTSVDPALRRRRRGPRNKKRGW [NOP53] were, in that order, 4.64 ± 0.56 and 4.29 ± 0.23.
As for RRKIRELQLRYSLRILIGDPPHHD [BEX5], the protein stability index was determined as 2.42 ± 0.42 under setting [1] and 2.07 ± 0.23 under setting [2].
The like results for MRILAHGELVLATAISSFTRHVFT [TLE6] were, in that order, 3.1 ± 0.61 and 2.76 ± 0.35.
On the same counts, the results for NLAKEQLSRENIQSSLLETLYRNR [PPEF2] are 3.05 ± 0.28 and 3.22 ± 0.12.
RTDLKDLIIFDKQSSQRMRQNLKL [CEP70]: the protein stability index is, setting by setting: under setting [1], 2.93 ± 0.24; under setting [2], 2.93 ± 0.32.
Turning to AAMLSMVKYNSCADRPFSAPWWFW [POMT2], the protein stability index was 2.31 ± 0.25 under setting [1] and 2.1 ± 0.31 under setting [2].
The like results for DDALEDFKKVLDLNPGFQDATLSL [TTC32] were, in that order, 3.73 ± 0.32 and 3.85 ± 0.32.
The like results for PQHVSSDKEVRAASTEADKRLSRF [NLN] were, in that order, 5.3 ± 0.18 and 5.1 ± 0.22.
On the same counts, the results for LLAIQFLEFFYGIATATEIAYYSY [SLC19A2] are 2.92 ± 1.3 and 3.13 ± 0.23.
PERIYQGSSGSYFVKDPQGRIIAV [PI4K2A]: the protein stability index under setting [1] worked out at 2.78 ± 0.25 and the protein stability index under setting [2] came to 2.74 ± 0.46.
The like results for SCTIIFLASIFQLAMWTTALLHQA [TMEM175] were, in that order, 2.5 ± 0.2 and 3.17 ± 0.54.
The like results for NNPEYLRERNMAPDLRQDFNMMEQ [ADD1] were, in that order, 4.74 ± 0.27 and 4.87 ± 0.18.
The like results for TLLVCGKKAYDYFQAKKIPIVSSL [PDZK1] were, in that order, 2.6 ± 0.75 and 2.58 ± 0.13.
Consider SLLGDDVFSTMAGLEEADAEVSVI [FBF1], for which the protein stability index reads like this: under setting [1], 3.56 ± 0.26; under setting [2], 3.5 ± 0.22.
On the same counts, the results for PSNSSSLTLSGIKEDNSLLNQGFL [MYBL2] are 3.57 ± 0.35 and 3.81 ± 0.45.
On the same counts, the results for WVSTQLQATCNVHKSAFNDWFSGH [FADS1] are 2.75 ± 0.82 and 2.43 ± 0.54.
The like results for ISQYEDDLPPPPADPVLDLPLPPP [APBB1IP] were, in that order, 4.93 ± 0.18 and 4.913 ± 0.048.
In the case of DVTAKNIWLAESVLDILTEQREWV [INTS3], the protein stability index runs as follows: under setting [1], 2.3 ± 0.24; under setting [2], 2.65 ± 0.33.
Turning to FVSALGITAGAHRLWSHRSYKARL [SCD], the protein stability index runs as follows: under setting [1], 2.73 ± 0.93; under setting [2], 2.5 ± 0.24.
On the same counts, the results for QYFVVDPMAEYNMPQYILREFKVT [PTPRD] are 2.48 ± 0.56 and 2.15 ± 0.16.
On the same counts, the results for LVHIVCHKKTTHKLNCDPSRIYKP [DFFB] are 2.41 ± 0.11 and 1.96 ± 0.41.
The like results for GTAGPLALARDLLSETADPFFVLN [GMPPB] were, in that order, 3.18 ± 0.31 and 3.23 ± 0.27.
Consider MFLHPVDYGRKAEELLWRKVYYEV [SMG5], for which the protein stability index came to 2.45 ± 0.59 under setting [1] and 2.11 ± 0.22 under setting [2].
The like results for LPVYLKKDPAYFYGYVYFRQVRDK [DENND6A] were, in that order, 2.59 ± 0.57 and 2.53 ± 0.47.
The like results for FSDGEKCRREAFRRLGNGVSDDLS [PHTF1] were, in that order, 4.05 ± 0.13 and 3.82 ± 0.17.
The like results for PDTQALCHHLPVIRQLATSGRFIV [SMG5] were, in that order, 2.07 ± 0.45 and 2.23 ± 0.44.
Regarding NECEITKRRRKSCQACRFMKCLKV [ESRRG], the protein stability index by setting is: under setting [1], 2.57 ± 0.056; under setting [2], 2.95 ± 0.38.
On the same counts, the results for YGETDFHKQDGKAGLFSQEQYERN [TMEM40] are 4.18 ± 0.16 and 4.72 ± 0.56.
On the same counts, the results for ETPNPPQSAQIACSSPSVVASLPL [MAGEA10] are 4.62 ± 0.25 and 4.59 ± 0.38.
The like results for QSQSLRDRARRFEEALRKNTEEQL [MTUS2] were, in that order, 4.88 ± 0.28 and 5.06 ± 0.18.
On to GVSYTFDNEDSELNGDYGENIYPY [MIA2], for which the protein stability index under setting [1] amounted to 3.93 ± 0.061 and the protein stability index under setting [2] was 3.77 ± 0.55.
On the same counts, the results for IAYYSYIYSVVDLGMYQKVTSYCR [SLC19A2] are 3.28 ± 0.38 and 2.62 ± 0.071.
On the same counts, the results for DLCPPIGRRAATALLWLSCSIALL [GNAS] are 2.59 ± 0.63 and 2.19 ± 0.28.
The like results for PSGEEEAKVGPGLPDGCQPLQLLR [CBY2] were, in that order, 4.75 ± 0.22 and 4.79 ± 0.27.
With FFLFIGVILFSSAVYFAEADDPTS [KCNA3], the protein stability index is, setting by setting: under setting [1], 2.8 ± 0.1; under setting [2], 3.09 ± 0.2.
The like results for NDRGDHYHWKDLNRGINITIYGKT [EFHC1] were, in that order, 2.5 ± 0.17 and 2.39 ± 0.54.
The like results for GGSSGKGTTLRGRSDADLVVFLSP [OAS1] were, in that order, 2.73 ± 0.17 and 3.07 ± 0.35.
On the same counts, the results for RSLILDDRGLRGFPKNRVLEGVID [TRIM9] are 3.16 ± 0.2 and 3.47 ± 0.41.
Regarding GWFVRELRVEFAAENYLSGGGPGD [FBXO33], the protein stability index under setting [1] came out at 2.14 ± 0.27 and the protein stability index under setting [2] was 2.21 ± 0.28.
On the same counts, the results for IYNSHLVVHQRVHSGEKPYKCSDC [ZNF232] are 2.9 ± 0.23 and 3.02 ± 0.28.
The like results for MVDSFHRTSLQYGIMCLKRLNYDR [PPFIA4] were, in that order, 1.88 ± 0.15 and 2.27 ± 0.2.
On the same counts, the results for RDRLRSRLEALSTERDEIEDVKCQ [TRIM15] are 5.32 ± 0.15 and 5.44 ± 0.35.
Take LSALLRATPGEYSVNICGMNEHPV [SPAG8]: the protein stability index stood at 2.27 ± 0.27 under setting [1] and 2.42 ± 0.16 under setting [2].
The like results for NFARLQTCISELRMLQREGCFRSQ [M1AP] were, in that order, 2.15 ± 0.31 and 2.13 ± 0.2.
For the sequence KTERINALELLGATFVDKKRDLLG [FEM1C], the protein stability index came to 3.23 ± 0.1 under setting [1] and 3.4 ± 0.22 under setting [2].
With ERSQVRGSAPPRATPGGGTGEAAR [PCDHGC5], the protein stability index under setting [1] was determined as 5.13 ± 0.31 and the protein stability index under setting [2] turned out to be 5.4 ± 0.18.
On the same counts, the results for TAPRQEKHERTHEIIPINVNNNYE [SPRY1] are 4.68 ± 0.15 and 4.61 ± 0.38.
For APRPGPPAGTPPPTARHFQEHPRQ [MOSPD3], the protein stability index is 4.99 ± 0.36 under setting [1] and 4.86 ± 0.35 under setting [2].
Regarding CSSARHPAWGHCFYRLYQDLETHR [SCNN1D], the protein stability index stood at 2.15 ± 0.17 under setting [1] and 2 ± 0.16 under setting [2].
On the same counts, the results for VLVLIFNAAKTCPTMPALFSDHTF [INTS4] are 3.16 ± 0.42 and 3.16 ± 0.48.
On the same counts, the results for LSLQKEQLQLKIIEIEDEAEKWQK [TRIM29] are 3.87 ± 0.094 and 3.9 ± 0.43.
STVGKLCRLINEDVNEQVMQVLGP [CEP70]: the protein stability index by setting is: under setting [1], 3.08 ± 0.19; under setting [2], 3.2 ± 0.25.
On the same counts, the results for DNLRKVVPCYSKTQKLSKIETLRL [NEUROD6] are 2.81 ± 0.17 and 2.8 ± 0.32.
On the same counts, the results for GVLVEDSNNHHLMLEASEWATIEG [ZBED1] are 4.2 ± 0.33 and 4.6 ± 0.32.

The values above are taken from the supplement of paper PMC10567573.
